In US20090149389A1 (PURDUE RESEARCH FOUNDATION, published 2009):

Experiments:
Experiment in all cases: cell-based or functional assay
[1] = target: Pim-1 (h) (human (h), UniProt P11309 1-313)
[2] = target: Abl (h) (human (h), UniProt P00519 27-1130, limits assumed)
[3] = target: AMPK (r) (rat (r), UniProt Q09137 1-552, limits assumed)
[4] = target: CK2 (h) (human (h), UniProt P68400 1-391)
[5] = target: FGFR1 (h) (human (h), UniProt P11362 456-765, limits assumed)
[6] = target: TrkA (h) (human (h), UniProt P04629 441-796, limits assumed)
TrkA (h), sequence (P04629 441-796 limits assumed): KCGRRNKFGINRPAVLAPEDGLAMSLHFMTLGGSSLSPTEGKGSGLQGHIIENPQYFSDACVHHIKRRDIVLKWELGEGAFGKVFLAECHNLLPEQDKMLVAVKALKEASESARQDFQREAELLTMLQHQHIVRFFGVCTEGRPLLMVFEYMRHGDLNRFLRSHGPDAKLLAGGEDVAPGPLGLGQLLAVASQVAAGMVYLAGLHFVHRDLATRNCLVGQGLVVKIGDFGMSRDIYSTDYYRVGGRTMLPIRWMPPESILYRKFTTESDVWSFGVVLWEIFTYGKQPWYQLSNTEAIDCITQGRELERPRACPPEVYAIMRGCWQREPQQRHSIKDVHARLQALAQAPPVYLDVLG

[7] = target: KDR (tl) (UniProt P35968 790-1356, limits assumed)
KDR (tl), sequence (P35968 790-1356 limits assumed): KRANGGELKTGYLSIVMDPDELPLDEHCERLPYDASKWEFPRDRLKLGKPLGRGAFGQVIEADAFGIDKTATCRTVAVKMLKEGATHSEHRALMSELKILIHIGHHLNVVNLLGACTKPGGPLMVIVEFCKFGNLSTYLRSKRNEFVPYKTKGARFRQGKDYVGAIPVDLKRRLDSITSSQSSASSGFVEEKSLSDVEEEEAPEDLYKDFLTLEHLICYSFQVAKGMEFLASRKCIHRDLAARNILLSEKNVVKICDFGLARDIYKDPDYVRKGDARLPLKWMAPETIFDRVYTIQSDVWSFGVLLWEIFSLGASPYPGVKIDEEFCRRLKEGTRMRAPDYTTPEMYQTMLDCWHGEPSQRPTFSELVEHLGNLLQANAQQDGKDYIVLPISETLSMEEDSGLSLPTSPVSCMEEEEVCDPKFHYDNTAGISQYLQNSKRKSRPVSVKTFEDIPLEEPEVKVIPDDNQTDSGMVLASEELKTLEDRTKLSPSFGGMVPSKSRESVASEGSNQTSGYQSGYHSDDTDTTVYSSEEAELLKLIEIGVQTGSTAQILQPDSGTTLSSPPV

[8] = target: JAK3 (h) (human (h), UniProt P52333 781-1124, limits assumed)
JAK3 (h), sequence (P52333 781-1124 limits assumed): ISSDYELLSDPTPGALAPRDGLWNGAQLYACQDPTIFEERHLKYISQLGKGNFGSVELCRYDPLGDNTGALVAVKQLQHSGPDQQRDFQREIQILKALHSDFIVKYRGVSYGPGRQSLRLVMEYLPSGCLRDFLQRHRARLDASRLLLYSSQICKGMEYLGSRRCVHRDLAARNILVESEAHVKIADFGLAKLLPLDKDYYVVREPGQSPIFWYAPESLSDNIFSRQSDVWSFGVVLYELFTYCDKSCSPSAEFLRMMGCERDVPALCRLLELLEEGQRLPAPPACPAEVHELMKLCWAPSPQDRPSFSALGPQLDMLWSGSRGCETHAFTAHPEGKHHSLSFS

[9] = target: Tie2 (h) (human (h), UniProt Q02763 771-1124, limits assumed)
[10] = target: CaMKI (h) (human (h), UniProt Q14012 1-370, limits assumed)
[11] = target: CDKI/cyclinB (h) (human (h), UniProt P06493 1-297)
[12] = target: T1, IRAK4 (h) (human (h), UniProt Q9NWZ3 1-460, limits assumed)
T1 sequence (looked up): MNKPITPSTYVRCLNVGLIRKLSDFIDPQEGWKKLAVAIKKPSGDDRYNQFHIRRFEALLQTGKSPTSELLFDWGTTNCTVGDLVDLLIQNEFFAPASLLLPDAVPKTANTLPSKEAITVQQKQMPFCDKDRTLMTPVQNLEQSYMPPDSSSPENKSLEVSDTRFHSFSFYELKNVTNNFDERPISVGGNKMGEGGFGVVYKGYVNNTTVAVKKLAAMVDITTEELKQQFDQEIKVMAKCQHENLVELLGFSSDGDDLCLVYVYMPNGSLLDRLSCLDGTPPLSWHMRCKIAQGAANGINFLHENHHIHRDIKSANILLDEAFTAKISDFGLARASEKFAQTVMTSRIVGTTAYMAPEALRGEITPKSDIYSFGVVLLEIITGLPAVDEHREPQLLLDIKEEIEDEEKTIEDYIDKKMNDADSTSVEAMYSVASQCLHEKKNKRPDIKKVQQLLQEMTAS

[13] = target: T2, PhKγ2 (h) (human (h), UniProt P15735 1-406)
T2 sequence (looked up): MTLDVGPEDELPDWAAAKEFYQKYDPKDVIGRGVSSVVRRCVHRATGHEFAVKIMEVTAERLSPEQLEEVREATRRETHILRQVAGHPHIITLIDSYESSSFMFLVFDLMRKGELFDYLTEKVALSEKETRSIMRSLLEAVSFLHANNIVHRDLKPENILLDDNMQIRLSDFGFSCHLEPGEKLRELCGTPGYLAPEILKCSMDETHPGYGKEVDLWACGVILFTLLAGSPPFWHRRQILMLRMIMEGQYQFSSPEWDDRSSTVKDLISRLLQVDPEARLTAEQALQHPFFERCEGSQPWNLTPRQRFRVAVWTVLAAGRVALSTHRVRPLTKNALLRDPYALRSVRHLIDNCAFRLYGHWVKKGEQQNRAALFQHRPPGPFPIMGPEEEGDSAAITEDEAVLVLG

[14] = target: Rsk2 (h) (human (h), UniProt P51812 1-740)
Rsk2 (h), sequence (P51812 whole entry): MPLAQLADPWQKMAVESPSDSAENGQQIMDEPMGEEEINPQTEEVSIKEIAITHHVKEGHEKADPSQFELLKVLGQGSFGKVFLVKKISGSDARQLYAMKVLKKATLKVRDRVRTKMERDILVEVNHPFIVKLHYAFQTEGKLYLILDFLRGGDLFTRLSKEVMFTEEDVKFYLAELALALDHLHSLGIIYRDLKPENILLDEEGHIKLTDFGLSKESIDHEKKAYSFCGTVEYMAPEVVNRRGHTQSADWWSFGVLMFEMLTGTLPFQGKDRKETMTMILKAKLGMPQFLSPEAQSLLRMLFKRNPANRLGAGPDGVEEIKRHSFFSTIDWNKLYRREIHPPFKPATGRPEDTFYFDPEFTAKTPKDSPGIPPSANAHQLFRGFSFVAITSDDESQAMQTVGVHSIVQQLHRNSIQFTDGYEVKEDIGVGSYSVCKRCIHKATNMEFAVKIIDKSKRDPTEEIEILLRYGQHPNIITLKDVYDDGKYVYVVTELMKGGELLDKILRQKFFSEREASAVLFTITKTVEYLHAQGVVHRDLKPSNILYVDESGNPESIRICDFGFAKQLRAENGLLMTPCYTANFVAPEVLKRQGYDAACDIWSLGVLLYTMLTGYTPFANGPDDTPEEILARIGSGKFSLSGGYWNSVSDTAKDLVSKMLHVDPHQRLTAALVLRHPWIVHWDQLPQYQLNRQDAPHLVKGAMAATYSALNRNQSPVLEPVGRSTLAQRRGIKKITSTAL

[15] = target: EGFR (h) (human (h), UniProt P00533 696-1210, limits assumed)
[16] = target: T3, DYRK2 (h) (human (h), UniProt Q92630 1-601, limits assumed)
T3 sequence (looked up): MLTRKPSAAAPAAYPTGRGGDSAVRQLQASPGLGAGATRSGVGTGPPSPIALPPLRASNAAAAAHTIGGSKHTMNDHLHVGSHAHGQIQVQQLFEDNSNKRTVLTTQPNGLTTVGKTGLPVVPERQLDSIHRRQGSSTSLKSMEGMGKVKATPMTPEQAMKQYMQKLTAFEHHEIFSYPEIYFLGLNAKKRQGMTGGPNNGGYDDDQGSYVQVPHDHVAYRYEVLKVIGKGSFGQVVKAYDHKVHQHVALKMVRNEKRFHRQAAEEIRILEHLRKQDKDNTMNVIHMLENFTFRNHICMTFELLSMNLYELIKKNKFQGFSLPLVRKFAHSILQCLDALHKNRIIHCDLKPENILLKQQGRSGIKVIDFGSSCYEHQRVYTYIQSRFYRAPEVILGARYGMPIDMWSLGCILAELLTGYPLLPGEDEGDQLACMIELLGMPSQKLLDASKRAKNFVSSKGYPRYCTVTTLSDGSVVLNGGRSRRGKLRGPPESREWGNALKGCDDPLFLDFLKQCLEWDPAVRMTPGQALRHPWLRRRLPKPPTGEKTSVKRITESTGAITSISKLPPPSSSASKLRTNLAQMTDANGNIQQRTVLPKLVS

[17] = target: T4, EphA2 (h) (human (h), UniProt P29317 591-976, limits assumed)
T4 sequence (looked up): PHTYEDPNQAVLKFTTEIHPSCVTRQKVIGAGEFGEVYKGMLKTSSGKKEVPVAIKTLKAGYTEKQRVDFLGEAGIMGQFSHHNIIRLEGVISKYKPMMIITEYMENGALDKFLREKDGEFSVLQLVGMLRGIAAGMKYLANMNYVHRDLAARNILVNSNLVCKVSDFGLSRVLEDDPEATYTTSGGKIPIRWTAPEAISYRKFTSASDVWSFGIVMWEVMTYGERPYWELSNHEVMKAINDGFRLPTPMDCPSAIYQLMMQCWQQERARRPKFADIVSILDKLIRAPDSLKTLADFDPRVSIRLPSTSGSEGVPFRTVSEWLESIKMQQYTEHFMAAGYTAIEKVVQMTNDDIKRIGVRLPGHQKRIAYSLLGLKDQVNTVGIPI

[18] = target: GSK3β (h) (human (h), UniProt P49841 1-420)
GSK3β (h), sequence (P49841 whole entry): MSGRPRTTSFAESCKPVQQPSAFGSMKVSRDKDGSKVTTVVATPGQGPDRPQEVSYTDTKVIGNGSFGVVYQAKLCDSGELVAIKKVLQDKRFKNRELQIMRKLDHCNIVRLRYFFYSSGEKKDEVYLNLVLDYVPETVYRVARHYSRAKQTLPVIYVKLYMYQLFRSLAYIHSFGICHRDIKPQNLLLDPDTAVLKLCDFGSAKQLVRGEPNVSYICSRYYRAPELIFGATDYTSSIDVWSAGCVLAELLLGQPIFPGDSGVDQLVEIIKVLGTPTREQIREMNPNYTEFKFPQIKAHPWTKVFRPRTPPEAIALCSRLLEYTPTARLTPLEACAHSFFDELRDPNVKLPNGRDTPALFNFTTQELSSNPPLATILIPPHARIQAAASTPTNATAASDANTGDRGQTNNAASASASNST

CK2 (h), sequence (P68400 whole entry): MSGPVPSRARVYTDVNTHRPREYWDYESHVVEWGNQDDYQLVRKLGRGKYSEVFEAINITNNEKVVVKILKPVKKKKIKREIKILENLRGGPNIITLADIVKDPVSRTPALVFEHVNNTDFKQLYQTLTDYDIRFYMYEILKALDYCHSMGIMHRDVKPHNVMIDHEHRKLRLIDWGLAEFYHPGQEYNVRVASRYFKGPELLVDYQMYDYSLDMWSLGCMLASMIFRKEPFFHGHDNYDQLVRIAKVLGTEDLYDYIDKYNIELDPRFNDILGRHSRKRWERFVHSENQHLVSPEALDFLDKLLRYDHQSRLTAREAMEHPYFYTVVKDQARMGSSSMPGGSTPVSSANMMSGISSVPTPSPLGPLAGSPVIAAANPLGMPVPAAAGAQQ
AMPK (r), sequence (Q09137 whole entry): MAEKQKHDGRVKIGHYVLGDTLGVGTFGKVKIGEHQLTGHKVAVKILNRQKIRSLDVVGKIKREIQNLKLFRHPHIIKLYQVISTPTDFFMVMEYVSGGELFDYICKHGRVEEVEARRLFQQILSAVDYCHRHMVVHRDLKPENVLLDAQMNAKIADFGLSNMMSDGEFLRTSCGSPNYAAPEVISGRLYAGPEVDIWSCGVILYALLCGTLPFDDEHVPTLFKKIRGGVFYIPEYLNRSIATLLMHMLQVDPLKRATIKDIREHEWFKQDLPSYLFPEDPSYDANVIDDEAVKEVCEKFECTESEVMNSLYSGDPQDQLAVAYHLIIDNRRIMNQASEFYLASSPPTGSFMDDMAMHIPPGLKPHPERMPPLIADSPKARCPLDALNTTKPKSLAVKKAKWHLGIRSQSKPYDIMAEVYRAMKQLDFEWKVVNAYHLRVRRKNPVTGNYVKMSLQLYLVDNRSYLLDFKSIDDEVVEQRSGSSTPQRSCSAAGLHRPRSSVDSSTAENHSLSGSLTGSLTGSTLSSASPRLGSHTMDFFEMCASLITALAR
FGFR1 (h), sequence (P11362 456-765 limits assumed): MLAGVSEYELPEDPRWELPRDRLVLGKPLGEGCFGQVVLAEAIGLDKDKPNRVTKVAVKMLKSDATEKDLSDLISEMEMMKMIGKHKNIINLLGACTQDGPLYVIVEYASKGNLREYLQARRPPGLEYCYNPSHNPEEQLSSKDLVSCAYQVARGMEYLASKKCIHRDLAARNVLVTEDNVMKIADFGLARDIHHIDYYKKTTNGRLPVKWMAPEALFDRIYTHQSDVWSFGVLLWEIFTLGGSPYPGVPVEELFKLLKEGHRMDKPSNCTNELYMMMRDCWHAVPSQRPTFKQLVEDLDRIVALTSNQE
Abl (h), sequence (P00519 27-1130 limits assumed): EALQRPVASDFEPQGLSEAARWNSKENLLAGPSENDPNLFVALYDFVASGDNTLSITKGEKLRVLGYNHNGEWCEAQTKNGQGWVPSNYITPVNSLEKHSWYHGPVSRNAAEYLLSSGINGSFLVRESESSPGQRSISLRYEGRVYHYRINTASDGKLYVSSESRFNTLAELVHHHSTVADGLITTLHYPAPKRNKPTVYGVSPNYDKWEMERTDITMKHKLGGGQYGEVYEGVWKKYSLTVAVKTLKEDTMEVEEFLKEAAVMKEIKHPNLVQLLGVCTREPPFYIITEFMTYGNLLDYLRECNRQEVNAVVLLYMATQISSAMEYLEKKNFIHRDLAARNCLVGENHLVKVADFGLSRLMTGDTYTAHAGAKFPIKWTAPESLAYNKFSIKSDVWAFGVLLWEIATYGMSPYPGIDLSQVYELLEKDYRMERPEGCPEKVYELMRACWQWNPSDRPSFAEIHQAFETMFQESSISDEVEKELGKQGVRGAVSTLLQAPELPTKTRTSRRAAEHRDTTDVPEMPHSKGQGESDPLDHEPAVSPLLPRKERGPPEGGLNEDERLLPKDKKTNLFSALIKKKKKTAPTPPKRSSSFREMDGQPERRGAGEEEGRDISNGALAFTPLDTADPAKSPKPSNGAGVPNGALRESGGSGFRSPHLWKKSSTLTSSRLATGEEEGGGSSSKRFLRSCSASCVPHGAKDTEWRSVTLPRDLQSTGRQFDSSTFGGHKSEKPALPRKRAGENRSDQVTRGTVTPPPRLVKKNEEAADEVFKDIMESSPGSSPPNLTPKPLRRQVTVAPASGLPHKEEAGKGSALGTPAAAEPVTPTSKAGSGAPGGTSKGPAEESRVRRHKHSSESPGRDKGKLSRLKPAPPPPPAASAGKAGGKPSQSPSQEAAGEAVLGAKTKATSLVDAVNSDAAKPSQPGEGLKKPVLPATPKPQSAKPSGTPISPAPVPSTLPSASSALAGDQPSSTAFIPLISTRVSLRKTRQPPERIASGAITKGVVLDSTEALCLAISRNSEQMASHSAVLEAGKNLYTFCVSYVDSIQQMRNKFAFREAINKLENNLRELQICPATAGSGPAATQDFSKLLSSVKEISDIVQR

WLRRIKAWLRRIKALNRQLGVAA
Profile-1 @ = 30 µm (kinase profiler assay) [1]: 5 | Profile-1 @ = 30 µm (kinase profiler assay) [2]: 24 | Profile-1 @ = 30 µm (kinase profiler assay) [3]: 36 | Profile-1 @ = 30 µm (kinase profiler assay) [4]: 114 | Profile-1 @ = 30 µm (kinase profiler assay) [5]: 27 | Profile-1 @ = 30 µm (kinase profiler assay) [6]: 6 | Profile-1 @ = 30 µm (kinase profiler assay) [7]: 27 | Profile-1 @ = 30 µm (kinase profiler assay) [8]: 85 | Profile-1 @ = 30 µm (kinase profiler assay) [9]: 17 | Profile-1 @ = 30 µm (kinase profiler assay) [10]: 9 | Profile-1 @ = 30 µm (kinase profiler assay) [11]: 17 | Profile-1 @ = 30 µm (kinase profiler assay) [12]: 12 | Profile-1 @ = 30 µm (kinase profiler assay) [13]: 15 | Profile-1 @ = 30 µm (kinase profiler assay) [14]: 14 | Profile-1 @ = 30 µm (kinase profiler assay) [15]: 10 | Profile-1 @ = 30 µm (kinase profiler assay) [16]: 93 | Profile-1 @ = 30 µm (kinase profiler assay) [17]: 38 | Profile-1 @ = 30 µm (kinase profiler assay) [18]: 129
